The values below are quoted from earlier work in publication PMC4520744.

For this series, the target named is HBV capsid protein (Hepatitis B virus) (UniProt P03149).

For orientation: Kd means the constant that tells how readily two partners part at equilibrium. For the substance “HBV capsid protein (from UniProt P03149)”, the Kd was 3 mM.
